Tests used:
LRH-1 (hLRH-1, NR5A2) [1] = molecular target: T1, LRH-1 (hLRH-1, NR5A2) (Homo sapiens, UniProt O00482 O00482:1-541); assay: EMSA; 2.5 mM MgCl2, 50 mM NaCl, room temperature; higher affinity than apo AI -144/-122 by competition (Example 4); settings: tags: none stated; TNT-T7 rabbit reticulocyte lysate, vector pCI-hLRH-1; label: 32P
Procedure: (§1) 2 μl of rabbit reticulocyte lysate programmed by hLRH-1 were incubated for 15 minutes at room temperature in a final volume of 20 μl of buffer containing 10 mM HEPES, 2.5 mM MgCl₂, 10% glycerol, 2.5 mg/ml BSA, 50 mM NaCl and 0.5 mM DTT with 2.5 μg of polydl-dC and 1 μg of herring sperm DNA in the presence of the labelled double-stranded oligonucleotides (0.5 ng). The complexes were then separated by non-denaturing gel electrophoresis in TBE 0.25X buffer.
(§2) In contrast, no complex was detected in the presence of labelled double-stranded oligonucleotide corresponding to the mutated response element (hCyp7a mut). […] On the other hand, a specific LRH-1/DNA complex formed with a labelled double-stranded oligonucleotide corresponding to fragment −144/−122 (LRHRE_ApoA1_h_{—}7) of the human apo AI gene promoter. Said fragment straddles regions B and C of the human apo AI promoter and contains, on the antisense strand, the sequence TCAAGGATC similar to the consensus sequence TCAAGGTCA of an LRH-1 response element.

LRH-1 (hLRH-1, NR5A2) [2] = molecular target: T1, LRH-1 (hLRH-1, NR5A2); assay: EMSA; no complex; settings: tags: none stated; TNT-T7 rabbit reticulocyte lysate, vector pCI-hLRH-1; label: 32P
Procedure: as §1, §2

LRH-1 (hLRH-1, NR5A2) [3] = molecular target: T1, LRH-1 (hLRH-1, NR5A2); assay: EMSA; specific complex; settings: tags: none stated; TNT-T7 rabbit reticulocyte lysate, vector pCI-hLRH-1; label: 32P
FXR [4] = molecular target: T2, FXR (UniProt Q96RI1 Q96RI1:1-486); assay: EMSA; specific complex; settings: tags: none stated; TNT-T7 rabbit reticulocyte lysate, vector pCDNA3-FXR; label: 32P
T2 sequence: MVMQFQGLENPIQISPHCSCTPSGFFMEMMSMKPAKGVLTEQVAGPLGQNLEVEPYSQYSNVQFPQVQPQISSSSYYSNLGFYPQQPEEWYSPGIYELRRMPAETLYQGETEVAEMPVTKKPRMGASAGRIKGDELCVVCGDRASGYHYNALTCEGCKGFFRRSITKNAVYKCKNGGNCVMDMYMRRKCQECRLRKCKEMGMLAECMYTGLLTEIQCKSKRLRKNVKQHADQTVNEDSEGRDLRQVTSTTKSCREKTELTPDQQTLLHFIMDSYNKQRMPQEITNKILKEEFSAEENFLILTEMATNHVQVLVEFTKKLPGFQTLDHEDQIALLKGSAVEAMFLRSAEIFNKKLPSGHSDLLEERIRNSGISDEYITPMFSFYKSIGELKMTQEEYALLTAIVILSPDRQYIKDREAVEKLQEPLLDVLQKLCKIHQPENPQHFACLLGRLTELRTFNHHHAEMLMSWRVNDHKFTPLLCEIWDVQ

LRH-1 (hLRH-1, NR5A2) [5] = molecular target: T1, LRH-1 (hLRH-1, NR5A2); assay: EMSA; FXR site mutation does not affect LRH-1 binding; settings: tags: none stated; TNT-T7 rabbit reticulocyte lysate, vector pCI-hLRH-1; label: 32P
FXR [6] = molecular target: T2, FXR; assay: EMSA; complex lost; settings: tags: none stated; TNT-T7 rabbit reticulocyte lysate, vector pCDNA3-FXR; label: 32P
LRH-1 (hLRH-1, NR5A2) [7] = molecular target: T1, LRH-1 (hLRH-1, NR5A2); assay: EMSA; no complex; also no displacement as competitor (FIG. 4B); settings: tags: none stated; TNT-T7 rabbit reticulocyte lysate, vector pCI-hLRH-1; label: 32P
Procedure: as §1, §2

LRH-1 (hLRH-1, NR5A2) [8] = molecular target: T1, LRH-1 (hLRH-1, NR5A2); assay: EMSA; specific complex; low affinity site, as competitor only partially displaces Cyp7a probe (FIG. 4A); settings: tags: none stated; TNT-T7 rabbit reticulocyte lysate, vector pCI-hLRH-1; label: 32P
Procedure: as §1, §2

FXR [9] = molecular target: T2, FXR; assay: EMSA; no complex; settings: tags: none stated; TNT-T7 rabbit reticulocyte lysate, vector pCDNA3-FXR; label: 32P
LRH-1 (hLRH-1, NR5A2) [10] = molecular target: T1, LRH-1 (hLRH-1, NR5A2); assay: EMSA; no complex; no displacement as competitor (FIG. 4A); settings: tags: none stated; TNT-T7 rabbit reticulocyte lysate, vector pCI-hLRH-1; label: 32P
Procedure: as §1, §2

T1 sequence (O00482 whole entry, one chain of several): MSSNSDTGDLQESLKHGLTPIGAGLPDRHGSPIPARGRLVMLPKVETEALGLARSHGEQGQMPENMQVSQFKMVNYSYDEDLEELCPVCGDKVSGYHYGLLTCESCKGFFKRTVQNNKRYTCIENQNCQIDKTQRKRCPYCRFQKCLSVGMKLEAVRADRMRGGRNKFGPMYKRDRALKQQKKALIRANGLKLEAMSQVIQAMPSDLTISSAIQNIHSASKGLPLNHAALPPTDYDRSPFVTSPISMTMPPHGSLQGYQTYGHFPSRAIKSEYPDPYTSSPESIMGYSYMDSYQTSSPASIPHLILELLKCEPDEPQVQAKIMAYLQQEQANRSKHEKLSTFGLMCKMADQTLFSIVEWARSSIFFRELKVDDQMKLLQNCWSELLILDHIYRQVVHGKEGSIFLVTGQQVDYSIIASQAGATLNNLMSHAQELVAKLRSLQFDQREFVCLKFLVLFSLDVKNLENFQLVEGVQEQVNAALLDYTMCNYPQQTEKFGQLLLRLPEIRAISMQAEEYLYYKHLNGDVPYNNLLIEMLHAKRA

B1: hCyp7a wt (dsDNA)
DNA 1: GATCTCTTAGTTCAAGGCCAGTTAG
DNA 2: GATCCTAACTGGCCTTGAACTAAGA
LRH-1 (hLRH-1, NR5A2) [1]
  binding result: binds

B2: LRHRE_ApoA1_h_5 (-191/-171) (dsDNA)
DNA 1: GATCCGCAGCCCCCGCAGCTTGCTGTA
DNA 2: GATCTACAGCAAGCTGCGGGGGCTGCG
LRH-1 (hLRH-1, NR5A2) [2]
  binding result: no binding

B3: LRHRE_ApoA1_h_8 (-180/-158) (dsDNA)
DNA 1: GATCCAGCTTGCTGTTTGCCCACTCTATA
DNA 2: GATCTATAGAGTGGGCAAACAGCAAGCTG
LRH-1 (hLRH-1, NR5A2) [2]
  binding result: no binding

B4: FXRRE_ApoA1_h_1 (dsDNA)
DNA 1: CAGAGCTGATCCTTGAACTCTTAAGTT
DNA 2: AACTTAAGAGTTCAAGGATCAGCTCTG
LRH-1 (hLRH-1, NR5A2) [3]
  binding result: binds
FXR [4]
  binding result: binds

B5: FXRRE_ApoA1_h_1_mut (dsDNA)
DNA 1: CAGAGCTGATCCTTGAAGTGTTAAGTT
DNA 2: AACTTAACACTTCAAGGATCAGCTCTG
LRH-1 (hLRH-1, NR5A2) [5]
  binding result: binds
FXR [6]
  binding result: no binding

B6: hCyp7a mut (dsDNA)
DNA 1: GATCTCTTAGTTCAATTCCAGTTAG
DNA 2: GATCCTAACTGGAATTGAACTAAGA
LRH-1 (hLRH-1, NR5A2) [7]
  binding result: no binding

B7: LRHRE_ApoA1_h_7 (-144/-122) (dsDNA)
DNA 1: GATCCGGGACAGAGCTGATCCTTGAACTA
DNA 2: GATCTAGTTCAAGGATCAGCTCTGTCCCG
LRH-1 (hLRH-1, NR5A2) [8]
  binding result: binds
FXR [9]
  binding result: no binding

B8: LRHRE_ApoA1_h_6 (-178/-145) (dsDNA)
DNA 1: GATCCTTGCCCACTCTATTTGCCCAGCCCCAA
DNA 2: GATCTTGGGGCTGGGCAAATAGAGTGGGCAAG
LRH-1 (hLRH-1, NR5A2) [2]
  binding result: no binding

B9: LRHRE_ApoA1 mut (dsDNA)
DNA 1: GATCCGGGACAGAGCTGATTGTTGAACTA
DNA 2: GATCTAGTTCAACAATCAGCTCTGTCCCG
FXR [9]
  binding result: no binding
LRH-1 (hLRH-1, NR5A2) [10]
  binding result: no binding
